Here are results for 2 variants from IntAct's records for PubMed 17641687.

B1: Kinesin-like protein KIF16B (Homo sapiens), Q96L93 (parent)
chain: MASVKVAVRVRPMNRREKDLEAKFIIQMEKSKTTITNLKIPEGGTGDSGRERTKTFTYDFSFYSADTKSPDYVSQEMVFKTLGTDVVKSAFEGYNACVFAYGQTGSGKSYTMMGNSGDSGLIPRICEGLFSRINETTRWDEASFRTEVSYLEIYNERVRDLLRRKSSKTFNLRVREHPKEGPYVEDLSKHLVQNYGDVEELMDAGNINRTTAATGMNDVSSRSHAIFTIKFTQAKFDSEMPCETVSKIHLVDLAGSERADATGATGVRLKEGGNINKSLVTLGNVISALADLSQDAANTLAKKKQVFVPYRDSVLTWLLKDSLGGNSKTIMIATISPADVNYGETLSTLRYANRAKNIINKPTINEDANVKLIRELRAEIARLKTLLAQGNQIALLDSPTALSMEEKLQQNEARVQELTKEWTNKWNETQNILKEQTLALRKEGIGVVLDSELPHLIGIDDDLLSTGIILYHLKEGQTYVGRDDASTEQDIVLHGLDLESEHCIFENIGGTVTLIPLSGSQCSVNGVQIVEATHLNQGAVILLGRTNMFRFNHPKEAAKLREKRKSGLLSSFSLSMTDLSKSRENLSAVMLYNPGLEFERQQREELEKLESKRKLIEEMEEKQKSDKAELERMQQEVETQRKETEIVQLQIRKQEESLKRRSFHIENKLKDLLAEKEKFEEERLREQQEIELQKKRQEEETFLRVQEELQRLKELNNNEKAEKFQIFQELDQLQKEKDEQYAKLELEKKRLEEQEKEQVMLVAHLEEQLREKQEMIQLLRRGEVQWVEEEKRDLEGIRESLLRVKEARAGGDEDGEELEKAQLRFFEFKRRQLVKLVNLEKDLVQQKDILKKEVQEEQEILECLKCEHDKESRLLEKHDESVTDVTEVPQDFEKIKPVEYRLQYKERQLQYLLQNHLPTLLEEKQRAFEILDRGPLSLDNTLYQVEKEMEEKEEQLAQYQANANQLQKLQATFEFTANIARQEEKVRKKEKEILESREKQQREALERALARLERRHSALQRHSTLGMEIEEQRQKLASLNSGSREQSGLQASLEAEQEALEKDQERLEYEIQQLKQKIYEVDGVQKDHHGTLEGKVASSSLPVSAEKSHLVPLMDARINAYIEEEVQRRLQDLHRVISEGCSTSADTMKDNEKLHNGTIQRKLKYERMVSRSLGANPDDLKDPIKISIPRYVLCGQGKDAHFEFEVKITVLDETWTVFRRYSRFREMHKTLKLKYAELAALEFPPKKLFGNKDERVIAERRSHLEKYLRDFFSVMLQSATSPLHINKVGLTLSKHTICEFSPFFKKGVFDYSSHGTG

The variants in this test derive from B1. The conditions noted are these: with eea1_human EEA1, Q15075.
Chain of eea1_human EEA1, Q15075 (Q15075 whole entry): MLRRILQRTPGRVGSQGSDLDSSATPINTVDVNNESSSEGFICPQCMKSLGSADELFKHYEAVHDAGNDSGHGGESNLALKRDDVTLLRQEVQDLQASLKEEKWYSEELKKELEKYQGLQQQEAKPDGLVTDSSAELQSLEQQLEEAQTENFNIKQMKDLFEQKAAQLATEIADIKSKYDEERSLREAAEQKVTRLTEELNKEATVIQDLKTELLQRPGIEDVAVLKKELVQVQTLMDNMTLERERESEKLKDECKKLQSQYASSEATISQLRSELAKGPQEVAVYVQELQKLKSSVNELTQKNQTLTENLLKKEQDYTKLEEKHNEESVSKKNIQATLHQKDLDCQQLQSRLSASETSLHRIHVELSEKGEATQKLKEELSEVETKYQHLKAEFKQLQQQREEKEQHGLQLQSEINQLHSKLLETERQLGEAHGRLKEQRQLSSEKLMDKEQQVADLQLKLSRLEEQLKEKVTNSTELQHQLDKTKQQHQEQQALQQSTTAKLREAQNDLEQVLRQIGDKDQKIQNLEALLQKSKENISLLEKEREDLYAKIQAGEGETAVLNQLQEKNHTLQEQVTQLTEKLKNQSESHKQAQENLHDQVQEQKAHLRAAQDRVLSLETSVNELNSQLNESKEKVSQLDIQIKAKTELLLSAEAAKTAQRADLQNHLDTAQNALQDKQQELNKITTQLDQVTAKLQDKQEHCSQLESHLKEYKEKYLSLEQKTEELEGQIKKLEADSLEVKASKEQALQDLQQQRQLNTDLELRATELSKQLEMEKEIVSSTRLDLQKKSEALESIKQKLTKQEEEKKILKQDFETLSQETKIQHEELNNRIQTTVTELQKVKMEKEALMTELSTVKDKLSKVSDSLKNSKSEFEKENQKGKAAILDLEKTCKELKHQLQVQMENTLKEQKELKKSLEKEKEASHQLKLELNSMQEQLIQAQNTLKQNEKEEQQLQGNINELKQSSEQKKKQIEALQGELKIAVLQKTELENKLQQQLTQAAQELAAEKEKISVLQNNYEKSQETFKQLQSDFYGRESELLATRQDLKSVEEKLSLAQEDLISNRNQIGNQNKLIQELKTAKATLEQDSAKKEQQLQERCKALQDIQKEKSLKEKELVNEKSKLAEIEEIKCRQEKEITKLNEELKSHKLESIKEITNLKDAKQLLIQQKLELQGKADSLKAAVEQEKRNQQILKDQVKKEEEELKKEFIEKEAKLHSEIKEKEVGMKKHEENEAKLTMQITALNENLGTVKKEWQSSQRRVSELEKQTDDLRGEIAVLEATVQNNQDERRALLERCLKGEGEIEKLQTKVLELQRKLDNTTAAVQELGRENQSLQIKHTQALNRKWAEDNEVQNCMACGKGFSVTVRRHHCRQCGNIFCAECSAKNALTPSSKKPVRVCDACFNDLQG
Consider L1248A, for which the “effect of a mutation on the interaction” value is on record as “disrupting interaction”. For F1249A, the “effect of a mutation on the interaction” value is “disrupting interaction”.
